Experimental data published in PMC4430201 (Nature, 2014).

Target: the molecule itself
Assay: crystal structure

B1: lantibiotic dehydratase NisB (enzyme, Lactococcus lactis)
chain: MIKSSFKAQPFLVRNTILCPNDKRSFTEYTQVIETVSKNKVFLEQLLLANPKLYDVMQKYNAGLLKKKRVKKLFESIYKYYKRSYLRSTPFGLFSETSIGVFSKSSQYKLMGKTTKGIRLDTQWLIRLVHKMEVDFSKKLSFTRNNANYKFGDRVFQVYTINSSELEEVNIKYTNVYQIISEFCENDYQKYEDICETVTLCYGDEYRELSEQYLGSLIVNHYLISNLQKDLLSDFSWNTFLTKVEAIDEDKKYIIPLKKVQKFIQEYSEIEIGEGIEKLKEIYQEMSQILENDNYIQIDLISDSEINFDVKQKQQLEHLAEFLGNTTKSVRRTYLDDYKDKFIEKYGVDQEVQITELFDSTFGIGAPYNYNHPRNDFYESEPSTLYYSEEEREKYLSMYVEAVKNHNVINLDDLESHYQKMDLEKKSELQGLELFLNLAKEYEKDIFILGDIVGNNNLGGASGRFSALSPELTSYHRTIVDSVERENENKEITSCEIVFLPENIRHANVMHTSIMRRKVLPFFTSTSHNEVLLTNIYIGIDEKEKFYARDISTQEVLKFYITSMYNKTLFSNELRFLYEISLDDKFGNLPWELIYRDFDYIPRLVFDEIVISPAKWKIWGRDVNSKMTIRELIQSKEIPKEFYIVNGDNKVYLSQKNPLDMEILESAIKKSSKRKDFIELQEYFEDENIINKGEKGRVADVVVPFIRTRALGNEGRAFIREKRVSVERREKLPFNEWLYLKLYISINRQNEFLLSYLPDIQKIVANLGGNLFFLRYTDPKPHIRLRIKCSDLFLAYGSILEILKRSRKNRIMSTFDISIYDQEVERYGGFDTLELSEAIFCADSKIIPNLLTLIKDTNNDWKVDDVSILVNYLYLKCFFQNDNKKILNFLNLVSTKKVKENVNEKIEHYLKLLKVNNLGDQIFYDKNFKELKHAIKNLFLKMIAQDFELQKVYSIIDSIIHVHNNRLIGIERDKEKLIYYTLQRLFVSEEYMK
modifications: methylated prior to crystallization (residues not stated)
- stoichiometry N: 2
